Results published in the nanobody polyreactivity screen of Harvey et al. (2022).

Assay: yeast display, Sf9 membrane polyspecificity reagent, FACS + sequencing; frameworks hold sequencing errors
Summary of the method: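 Galactose induction of a Saccharomyces cerevisiae BJ5465 synthetic nanobody display library ran 36–48 hours. The cells were then stained for 1 hour at 4 °C with 10% biotinylated, detergent-solubilized Sf9 membrane reagent, pulled down on streptavidin microbeads and FACS-sorted into low and high (top ~1%) gates on expression and reagent-binding fluorescence. Labels for polyreactivity follow the gate of origin.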

| Sequence | polyreactivity (PSR sort gate) |
| --- | --- |
| QVQLVDSGGGLVQAGGILRLSCPASGLIIRKNAMGWYRQAPGKERELVAAISYNGASTYYADSVKGRFTISRDNAKNTVYLQMNSLKPEDTAVYYCAAYAGYSDQARYYYWGQGTQVTVSS | high polyreactivity |
| QVQLVDSGGGLVQAGGSHRLSCAASGFTFPYNAMGWYRQAPGKERELVAANSSTGGITYYADSVKGRFTISRDNAKNTVYLQMNSLKPEDTAVYYCGWYDYWGQGTQVTVSS | low polyreactivity |
| QVQLVDSGGGLVQAGGSHRLSCAASGSIFPRYAMGWYRQAPGKERELVAAITRSGGSTYADSVKGRFTISRDNAKNTVYLQMNSLKPEDTAVYYCNGKVYPWGYYTSWRTVSPYDYWGQGTQVTVSS | high polyreactivity |
| QVQLVDSGGGLVQAGGSLLLSCAASGSISYQNAMGWYRQAPGKERELVAANSGDGDSTYYADSVKGRFTISRDNAKNTVYLQMNRLKPEDTAVYYCAAEPNVYFSVFVLFTSDYWGQGTLVTVSS | low polyreactivity |
| QVQLVDSGGGLVQAGGSLLLSCSASGSIFFSYAMGLYRQAPGKEREFVAAINSDDASTYADSVKGRFTISRDNAKNTVYLQMNSLKPEDTAVYYCAASFLWSWYDYWGQGTQVTVSS | low polyreactivity |
| QVQLVDSGGGLVQAGGSLPLSCAASGSIFDDYAMGWNRKAPGKERELVAAISGGVSTNYADSVKGRFTISRDNAKKTDYLQINSLKPEDTAVYYCNADYARAYIHEYWGQGTQVTVSS | low polyreactivity |
| QVQLVDSGGGLVQAGGSLRISCAASGSIFPPYAMGWSRQAPGKERELVAAITYSGVRTYYADSVKGRFTISRDNAKNTVYLQMNSLKPEDTAVYYCAAVYRRGIGYPFGYWGQGTQVSVSS | high polyreactivity |
| QVQLVDSGGGLVQAGGSLRLICAASGRIFIYNAMGWYRQAPGKERELVAAITRGGNTNYADSVKGRFTISRDNAKNTVYLQMNSLKPEDTAVYYCAAAIRYGSRHRGYWGQGTQVTVSS | low polyreactivity |
| QVQLVDSGGGLVQAGGSLRLICAASGSTLGQYAMGWYRQAPGKERELVAAITARTGRTYYADSVKGRFTISRDNAKNTVYLQMNSMKPEDTAVYYCASVTFSYQDYYWGQGTQVTVSS | high polyreactivity |
| QVQLVDSGGGLVQAGGSLRLICPASGSIFSTYAMGWYRQAPGKERELLAAINRGTSTNYADSVKGRFTISRDNAKNTVYLQMNCLKPEDTAVYYCAAYYRGRYGPRRSEYWGQGTQVTVSS | high polyreactivity |
| QVQLVDSGGGLVQAGGSLRLSCAASAFIFTRYAMGWYRQAPGKERELVAAISWIGTSTYYADSVKGRFTISRDNAKNTVYLQMNSLKPEDTAVYYCAKRSTSQSLQGVYWGLGTQVTVSS | high polyreactivity |
| QVQLVDSGGGLVQAGGSLRLSCAASGFIFKYYAMGWYRQEPGKERELVAAITIGGSTNYADSVKGRFTISRDNAKNTVYLQMNSLTPEDTAVYSCAADVQERYHRAWYDYWGQGTQVTVSS | low polyreactivity |
| QVQLVDSGGGLVQAGGSLRLSCAASGFIFQANAMGWYRQAPGKERELVAAIDDGDSTYADSVKGRFTISRDNAKNTVYLQMNSLKPEDTAVYYCATRRNRSYDYWGQGTLVTVSS | low polyreactivity |
| QVQLVDSGGGLVQAGGSLRLSCAASGFIFSSYAMVWYRQAPGKERELVAAISRSGGYTYYADSVKGRFTISRDNAKNTVYFQMNSLNAEDTAVYYCATRSYMPGVRRGYDYWGKGTQVTVSS | high polyreactivity |
| QVQLVDSGGGLVQAGGSLRLSCAASGFILSRYTMGWYRQAPGKERELVATISSGGRTYYADSVKGRFTISRDNAKNTVYLQMNSLKPEDTAVYYCAAAYTYWRISGNRYLYDYWGQGTQVTVSS | high polyreactivity |
| QVQLVDSGGGLVQAGGSLRLSCAASGFNFVFNAMGWYRQAPGKERELVAAINGGDITNYADSVKGRFTISRDNAKNTVYLQMNSLKPEDTAVYYCAADGEYSLWTGYDYDYWGQGTQVTVSS | low polyreactivity |
| QVQLVDSGGGLVQAGGSLRLSCAASGFTFSAYAMGWYRQAPGKERELVAAISWSGSRTYYADSVKGRFTISRDNAKNTVYLQMNSLKPEDTAVYYCAKEPYDTFGFYEYDYWGQGTQVTVSS | low polyreactivity |
| QVQLVDSGGGLVQAGGSLRLSCAASGFTFSTNAMGWYRQAPGKERELVAGITSSGGNTYYADSVKGRFTISRDNAKNTVYLQMNSLKPEDTAVYYCAKRRNYVAYDYWGQGTQVTVSS | high polyreactivity |
| QVQLVDSGGGLVQAGGSLRLSCAASGFTFVYYVMGWYRQAPGKERQLVAAINAGGGSTYYADSVKGRFTISRDIAKYTVYLQMNSLKPEDTAVYYCNARVRVRLGRNWSSYYYWGQGTQVTVSS | high polyreactivity |
| QVQLVDSGGGLVQAGGSLRLSCAASGFTFYLNTMGWYRQAPGKERELVAAIDLSDGTTYYADSVKGRFTISRDNAKNTVYLQMNSLKPEDTAVYYCAAESYEEWTSSGLDWTDDYWGQGTQVTVSS | high polyreactivity |
| QVQLVDSGGGLVQAGGSLRLSCAASGGIFGYGMGWYRQAPGKERELVAAITRSGGSTSYADSVKGRFTISRDNAKYTVYLQMNSVKPEDTAVYFCASRTRYSRYKSGYWGQGTQVTVSS | high polyreactivity |
| QVQLVDSGGGLVQAGGSLRLSCAASGGIFRQNVMGWYRQAPGKERELVAAISRRGGITYYAEAVKGRFTISRDNAKNTVYLQMNSLKPEDTAVYYCNKKPTWDYSYWGQGTQVTVSS | high polyreactivity |
| QVQLVDSGGGLVQAGGSLRLSCAASGIIFHFNDLGLYIQAPGKERELVAAIDSTGSTNYSDSVKGRYTISRDNAKITVYLQLNRVKPEDTAVYNCAVLNHRVDAVLTRYYYWGQGTKVTVSS | low polyreactivity |
| QVQLVDSGGGLVQAGGSLRLSCAASGIIFRAYAMGWSRAAPGKERELVAAISRRGSTTYYADSVKGRFTISRDNAKNTVYLQMNSLKPEDTAVYFCAADYAGPTGFDYWGQGTQVTVSS | high polyreactivity |
| QVQLVDSGGGLVQAGGSLRLSCAASGIIFSVYAMGWYRQAPGKERELVAAITYSGGSTYYADSVKGRFTISRDNAKNTVYLQMNSLKPEDTAVYYCNAYRYNALPWRYVGYDYWGQGTQVTVSS | low polyreactivity |
| QVQLVDSGGGLVQAGGSLRLSCAASGIIIKLYAMGWYRQAPGKEREFVATITKTGGRTYYADSVKGRFTISRDNAKNTVYLQMNSLKPEDTAVYYCAARRVNGKMYYWGQGTQVTVSS | high polyreactivity |
| QVQLVDSGGGLVQAGGSLRLSCAASGINFVWNVMGWYRQAPGKERELVADITSGGRTHYADSVKGRFTISRDNAKNTVYVQMNSLKPDDTAVYYCAARKYWRYQNYDYWGQGTQVTVSS | low polyreactivity |
| QVQLVDSGGGLVQAGGSLRLSCAASGITFNLYAMGWYRQAPGKERELVAAISNVGSTKYADSVKGRFTISRDNAKNTVYLQMTSLKPEDTAVYYCAADWDRYPDYDYWGQGTQVTVSS | low polyreactivity |
| QVQLVDSGGGLVQAGGSLRLSCAASGITFVFYAMGWYRQAPGKERELVAAISSSGGSTYYADSVKGRFTISRDNAKNTVYLQMNSLKPEDTAVYYCNAKVFSYQGAVRYDYWGQGTQVTVSS | high polyreactivity |
| QVQLVDSGGGLVQAGGSLRLSCAASGNTFVTYTMGWYRQAPGKERELVADISSGGSTYYADSVKGRFTISRDNAKNTVYLQMYSLKPEDTAVYYCAVLQAVFRSYYIYHRYYWGQGTKVTVSS | high polyreactivity |
